Test results published in US20150344570A1 (published 2015).

T1: FcγRIIa R extracellular domain with C-terminal His tag (human, UniProt P12318 34-217)
T1 construct: extracellular domain; also called FcgRIIa R; 2aR; not shown: His tag at the C terminus
T1 sequence (looked up): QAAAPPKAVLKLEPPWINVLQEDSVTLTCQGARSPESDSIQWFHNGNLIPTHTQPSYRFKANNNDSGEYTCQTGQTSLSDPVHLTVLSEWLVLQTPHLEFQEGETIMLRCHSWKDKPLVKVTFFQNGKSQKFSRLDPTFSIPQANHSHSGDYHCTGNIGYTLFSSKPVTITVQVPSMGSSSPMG

B1: GpH7-B3 variant S337_02A/GpL16-k0 (antibody, human IgG1, kappa)
heavy: not shown
light: DIVMTQSPLSLPVTPGEPASISCQASESLVHSNRNTYLHWYLQKPGQSPQLLIYKVSNRFSGVPDRFSGSGSGTDFTLKISRVEAEDVGVYYCSQNTHVPPTFGQGTKVEIERTVAAPSVFIFPPSDEQLKSGTASVVCLLNNFYPREAKVQWKVDNALQSGNSQESVTEQDSKDSTYSLSSTLTLSKADYEKHKVYACEVTHQGLSSPVTKSFNRGEC
notes: homodimerized: alteration in both H chains; also called Ho Ab S337_02A
B2: GpH7-B3 variant A327_09D/GpL16-k0 (antibody, human IgG1, kappa)
heavy: not shown
light: B1 light
notes: homodimerized: alteration in both H chains; also called Ho Ab A327_09D
B3: GpH7-B3 variant A327_10E/GpL16-k0 (antibody, human IgG1, kappa)
heavy: not shown
light: B1 light
notes: homodimerized: alteration in both H chains; also called Ho Ab A327_10E
B4: GpH7-B3 variant A330_01G/GpL16-k0 (antibody, human IgG1, kappa)
heavy: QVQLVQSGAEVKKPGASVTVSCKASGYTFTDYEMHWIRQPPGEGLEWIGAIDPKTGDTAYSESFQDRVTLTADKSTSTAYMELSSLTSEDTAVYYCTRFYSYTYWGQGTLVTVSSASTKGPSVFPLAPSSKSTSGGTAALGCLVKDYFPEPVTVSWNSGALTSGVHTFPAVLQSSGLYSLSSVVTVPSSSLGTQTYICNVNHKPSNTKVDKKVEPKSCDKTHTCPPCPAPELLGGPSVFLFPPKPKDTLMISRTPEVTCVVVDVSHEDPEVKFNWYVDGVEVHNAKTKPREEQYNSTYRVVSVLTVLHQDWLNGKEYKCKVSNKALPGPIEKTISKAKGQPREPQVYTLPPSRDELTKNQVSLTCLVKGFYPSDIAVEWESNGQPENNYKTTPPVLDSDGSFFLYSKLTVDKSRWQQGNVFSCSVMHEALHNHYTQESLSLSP
light: B1 light
notes: homodimerized: alteration in both H chains; also called Ho Ab A330_01G
B5: GpH7-B3 variant A330_12R/GpL16-k0 (antibody, human IgG1, kappa)
heavy: not shown
light: B1 light
notes: homodimerized: alteration in both H chains; also called Ho Ab A330_12R
B6: GpH7-B3 variant G237_04F/GpL16-k0 (antibody, human IgG1, kappa)
heavy: not shown
light: B1 light
notes: homodimerized: alteration in both H chains; also called Ho Ab G237_04F
B7: GpH7-B3 variant G237_20W/GpL16-k0 (antibody, human IgG1, kappa)
heavy: not shown
light: B1 light
notes: homodimerized: alteration in both H chains; also called Ho Ab G237_20W
B8: GpH7-B3 variant H268_01G/GpL16-k0 (antibody, human IgG1, kappa)
heavy: not shown
light: B1 light
notes: homodimerized: alteration in both H chains; also called Ho Ab H268_01G
B9: GpH7-B3 variant I332_06M/GpL16-k0 (antibody, human IgG1, kappa)
heavy: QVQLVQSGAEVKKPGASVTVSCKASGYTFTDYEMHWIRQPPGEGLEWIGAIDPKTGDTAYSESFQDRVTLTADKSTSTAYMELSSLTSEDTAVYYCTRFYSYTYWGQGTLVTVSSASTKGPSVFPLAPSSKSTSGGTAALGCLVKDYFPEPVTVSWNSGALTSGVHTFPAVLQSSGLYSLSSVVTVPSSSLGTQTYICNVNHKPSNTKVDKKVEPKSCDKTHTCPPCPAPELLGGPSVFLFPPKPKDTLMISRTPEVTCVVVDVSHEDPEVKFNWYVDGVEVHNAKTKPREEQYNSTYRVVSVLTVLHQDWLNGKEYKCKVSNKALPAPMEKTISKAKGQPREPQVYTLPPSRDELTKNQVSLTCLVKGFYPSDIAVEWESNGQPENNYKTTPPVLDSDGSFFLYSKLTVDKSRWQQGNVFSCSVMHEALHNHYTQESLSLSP
light: B1 light
notes: homodimerized: alteration in both H chains; also called Ho Ab I332_06M
B10: GpH7-B3 variant I336_08L/GpL16-k0 (antibody, human IgG1, kappa)
heavy: not shown
light: B1 light
notes: homodimerized: alteration in both H chains; also called Ho Ab I336_08L
B11: GpH7-B3 variant K326_03V/GpL16-k0 (antibody, human IgG1, kappa)
heavy: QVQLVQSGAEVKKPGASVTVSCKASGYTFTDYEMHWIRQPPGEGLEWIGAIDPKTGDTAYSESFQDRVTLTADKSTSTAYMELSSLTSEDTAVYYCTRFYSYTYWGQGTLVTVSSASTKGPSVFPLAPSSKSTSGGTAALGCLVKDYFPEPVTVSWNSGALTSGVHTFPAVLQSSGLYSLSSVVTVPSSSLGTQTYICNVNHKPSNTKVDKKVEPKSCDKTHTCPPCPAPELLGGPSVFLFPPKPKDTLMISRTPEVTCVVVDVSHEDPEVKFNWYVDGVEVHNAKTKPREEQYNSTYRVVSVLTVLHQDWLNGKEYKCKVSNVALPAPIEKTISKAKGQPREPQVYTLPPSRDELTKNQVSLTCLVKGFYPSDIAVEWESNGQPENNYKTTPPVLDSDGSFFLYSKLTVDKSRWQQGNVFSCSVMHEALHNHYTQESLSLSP
light: B1 light
notes: homodimerized: alteration in both H chains; also called Ho Ab K326_03V
B12: GpH7-B3 variant K326_04F/GpL16-k0 (antibody, human IgG1, kappa)
heavy: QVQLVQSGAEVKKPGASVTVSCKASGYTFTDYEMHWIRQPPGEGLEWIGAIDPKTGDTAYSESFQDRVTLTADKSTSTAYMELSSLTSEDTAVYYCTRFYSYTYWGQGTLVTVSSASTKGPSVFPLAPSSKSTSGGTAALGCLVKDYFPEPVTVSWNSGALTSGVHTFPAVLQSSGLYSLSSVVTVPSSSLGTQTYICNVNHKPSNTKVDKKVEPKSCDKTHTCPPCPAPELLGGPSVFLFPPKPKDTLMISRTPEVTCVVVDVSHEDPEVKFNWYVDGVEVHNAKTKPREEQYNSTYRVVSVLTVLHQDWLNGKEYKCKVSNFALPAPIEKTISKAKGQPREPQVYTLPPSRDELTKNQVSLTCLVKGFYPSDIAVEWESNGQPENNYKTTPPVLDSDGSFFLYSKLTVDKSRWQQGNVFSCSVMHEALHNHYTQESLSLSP
light: B1 light
notes: homodimerized: alteration in both H chains; also called Ho Ab K326_04F
B13: GpH7-B3 variant K326_07I/GpL16-k0 (antibody, human IgG1, kappa)
heavy: not shown
light: B1 light
notes: homodimerized: alteration in both H chains; also called Ho Ab K326_07I
B14: GpH7-B3 variant K326_08L/GpL16-k0 (antibody, human IgG1, kappa)
heavy: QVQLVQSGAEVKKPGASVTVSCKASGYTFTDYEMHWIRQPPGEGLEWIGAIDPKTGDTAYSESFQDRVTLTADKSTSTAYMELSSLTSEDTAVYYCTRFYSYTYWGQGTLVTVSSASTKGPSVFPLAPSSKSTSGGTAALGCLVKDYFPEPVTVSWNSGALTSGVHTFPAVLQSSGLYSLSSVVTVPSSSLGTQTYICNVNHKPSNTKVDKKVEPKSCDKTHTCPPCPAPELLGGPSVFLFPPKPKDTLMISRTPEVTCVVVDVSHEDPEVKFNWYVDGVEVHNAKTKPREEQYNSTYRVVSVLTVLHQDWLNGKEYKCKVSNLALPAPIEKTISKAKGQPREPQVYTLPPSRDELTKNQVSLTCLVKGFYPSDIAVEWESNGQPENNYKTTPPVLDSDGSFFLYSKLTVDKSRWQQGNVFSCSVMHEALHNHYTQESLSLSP
light: B1 light
notes: homodimerized: alteration in both H chains; also called Ho Ab K326_08L
B15: GpH7-B3 variant K326_15Y/GpL16-k0 (antibody, human IgG1, kappa)
heavy: not shown
light: B1 light
notes: homodimerized: alteration in both H chains; also called Ho Ab K326_15Y
B16: GpH7-B3 variant K326_20W/GpL16-k0 (antibody, human IgG1, kappa)
heavy: not shown
light: B1 light
notes: homodimerized: alteration in both H chains; also called Ho Ab K326_20W
B17: GpH7-B3 variant K334_02A/GpL16-k0 (antibody, human IgG1, kappa)
heavy: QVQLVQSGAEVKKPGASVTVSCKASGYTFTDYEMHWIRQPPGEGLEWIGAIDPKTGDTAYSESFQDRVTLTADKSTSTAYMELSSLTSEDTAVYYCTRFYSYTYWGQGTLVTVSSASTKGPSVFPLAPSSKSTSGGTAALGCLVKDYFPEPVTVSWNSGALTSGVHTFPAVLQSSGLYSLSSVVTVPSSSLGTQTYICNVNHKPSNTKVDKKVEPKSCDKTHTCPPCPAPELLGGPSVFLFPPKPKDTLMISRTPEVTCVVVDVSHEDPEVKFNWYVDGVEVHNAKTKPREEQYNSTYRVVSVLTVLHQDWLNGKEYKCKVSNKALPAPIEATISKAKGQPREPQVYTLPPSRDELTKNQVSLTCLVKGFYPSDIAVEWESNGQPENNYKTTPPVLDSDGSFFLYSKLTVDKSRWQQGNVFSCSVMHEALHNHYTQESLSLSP
light: B1 light
notes: homodimerized: alteration in both H chains; also called Ho Ab K334_02A
B18: GpH7-B3 variant K334_04F/GpL16-k0 (antibody, human IgG1, kappa)
heavy: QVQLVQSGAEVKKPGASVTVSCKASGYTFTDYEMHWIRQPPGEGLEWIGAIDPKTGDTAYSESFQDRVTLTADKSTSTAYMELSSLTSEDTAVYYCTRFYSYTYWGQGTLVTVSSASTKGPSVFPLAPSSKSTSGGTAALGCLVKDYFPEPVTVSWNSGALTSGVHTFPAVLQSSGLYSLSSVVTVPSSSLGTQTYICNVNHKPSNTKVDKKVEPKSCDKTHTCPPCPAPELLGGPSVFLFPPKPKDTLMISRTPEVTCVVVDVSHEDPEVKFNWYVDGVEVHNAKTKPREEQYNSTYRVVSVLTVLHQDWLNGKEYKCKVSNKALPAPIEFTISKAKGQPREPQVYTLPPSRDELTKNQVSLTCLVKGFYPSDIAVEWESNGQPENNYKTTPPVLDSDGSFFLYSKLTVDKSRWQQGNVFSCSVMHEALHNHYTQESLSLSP
light: B1 light
notes: homodimerized: alteration in both H chains; also called Ho Ab K334_04F
B19: GpH7-B3 variant K334_05P/GpL16-k0 (antibody, human IgG1, kappa)
heavy: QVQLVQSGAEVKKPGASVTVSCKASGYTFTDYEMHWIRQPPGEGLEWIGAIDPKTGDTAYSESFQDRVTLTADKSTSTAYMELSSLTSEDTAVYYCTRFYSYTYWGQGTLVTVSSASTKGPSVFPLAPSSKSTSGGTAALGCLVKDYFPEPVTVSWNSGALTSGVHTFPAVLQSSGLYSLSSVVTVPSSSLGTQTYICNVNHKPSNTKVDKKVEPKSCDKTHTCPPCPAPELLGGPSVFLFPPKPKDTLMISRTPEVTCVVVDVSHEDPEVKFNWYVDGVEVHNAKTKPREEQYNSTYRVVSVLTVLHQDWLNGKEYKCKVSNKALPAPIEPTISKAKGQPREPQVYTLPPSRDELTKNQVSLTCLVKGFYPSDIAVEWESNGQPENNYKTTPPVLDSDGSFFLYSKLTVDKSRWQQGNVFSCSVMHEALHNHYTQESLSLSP
light: B1 light
notes: homodimerized: alteration in both H chains; also called Ho Ab K334_05P
B20: GpH7-B3 variant K334_08L/GpL16-k0 (antibody, human IgG1, kappa)
heavy: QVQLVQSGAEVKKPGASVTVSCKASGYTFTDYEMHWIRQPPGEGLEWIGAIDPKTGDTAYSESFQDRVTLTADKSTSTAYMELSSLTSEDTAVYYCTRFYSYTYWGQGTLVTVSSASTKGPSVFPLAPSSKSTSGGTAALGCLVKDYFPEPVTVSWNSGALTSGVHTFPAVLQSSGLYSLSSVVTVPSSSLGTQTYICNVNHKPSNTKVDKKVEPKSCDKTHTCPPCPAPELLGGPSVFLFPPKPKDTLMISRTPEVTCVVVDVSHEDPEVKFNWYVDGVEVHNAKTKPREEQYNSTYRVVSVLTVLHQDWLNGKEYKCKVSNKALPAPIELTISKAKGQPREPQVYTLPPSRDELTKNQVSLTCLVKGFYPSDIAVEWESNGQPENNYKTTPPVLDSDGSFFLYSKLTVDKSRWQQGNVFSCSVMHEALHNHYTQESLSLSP
light: B1 light
notes: homodimerized: alteration in both H chains; also called Ho Ab K334_08L
B21: GpH7-B3 variant K334_10E/GpL16-k0 (antibody, human IgG1, kappa)
heavy: not shown
light: B1 light
notes: homodimerized: alteration in both H chains; also called Ho Ab K334_10E
B22: GpH7-B3 variant K334_13S/GpL16-k0 (antibody, human IgG1, kappa)
heavy: not shown
light: B1 light
notes: homodimerized: alteration in both H chains; also called Ho Ab K334_13S
B23: GpH7-B3 variant K334_19Q/GpL16-k0 (antibody, human IgG1, kappa)
heavy: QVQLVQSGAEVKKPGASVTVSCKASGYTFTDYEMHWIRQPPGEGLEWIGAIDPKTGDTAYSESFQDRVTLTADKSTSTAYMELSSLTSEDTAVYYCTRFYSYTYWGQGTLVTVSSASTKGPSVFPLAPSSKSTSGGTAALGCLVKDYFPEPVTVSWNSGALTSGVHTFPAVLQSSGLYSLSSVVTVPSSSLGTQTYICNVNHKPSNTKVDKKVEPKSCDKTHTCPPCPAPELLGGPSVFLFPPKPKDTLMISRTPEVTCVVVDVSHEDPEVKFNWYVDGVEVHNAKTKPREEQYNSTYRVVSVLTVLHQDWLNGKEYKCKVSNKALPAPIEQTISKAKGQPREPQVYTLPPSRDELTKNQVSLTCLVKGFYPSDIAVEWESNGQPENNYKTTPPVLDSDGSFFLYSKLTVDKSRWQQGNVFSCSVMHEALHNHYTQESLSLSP
light: B1 light
notes: homodimerized: alteration in both H chains; also called Ho Ab K334_19Q
B24: GpH7-B3 variant L235_20W/GpL16-k0 (antibody, human IgG1, kappa)
heavy: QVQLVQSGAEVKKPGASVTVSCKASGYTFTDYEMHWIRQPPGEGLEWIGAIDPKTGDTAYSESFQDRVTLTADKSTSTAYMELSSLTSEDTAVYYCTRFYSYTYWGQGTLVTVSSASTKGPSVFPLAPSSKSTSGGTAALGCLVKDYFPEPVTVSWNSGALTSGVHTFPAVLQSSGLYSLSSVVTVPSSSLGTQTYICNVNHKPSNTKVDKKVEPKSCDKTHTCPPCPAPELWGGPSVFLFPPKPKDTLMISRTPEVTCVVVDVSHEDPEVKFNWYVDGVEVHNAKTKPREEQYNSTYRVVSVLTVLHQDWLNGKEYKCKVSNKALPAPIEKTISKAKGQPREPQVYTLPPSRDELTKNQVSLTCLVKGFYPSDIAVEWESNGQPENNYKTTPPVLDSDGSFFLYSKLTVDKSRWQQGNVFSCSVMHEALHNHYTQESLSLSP
light: B1 light
notes: homodimerized: alteration in both H chains; also called Ho Ab L235_20W
B25: GpH7-B3 variant L328_13S/GpL16-k0 (antibody, human IgG1, kappa)
heavy: not shown
light: B1 light
notes: homodimerized: alteration in both H chains; also called Ho Ab L328_13S
B26: GpH7-B3 variant L328_14T/GpL16-k0 (antibody, human IgG1, kappa)
heavy: not shown
light: B1 light
notes: homodimerized: alteration in both H chains; also called Ho Ab L328_14T

Each binder was assayed against T1, FcγRIIa R extracellular domain with … (assay: SPR (Biacore), relative FcγRIIa R binding, GpH7-B3/GpL16-k0 = 100).
Description: Analysis of interaction between objective antibody and the FcγR was carried out using Biacore T100 (GE Healthcare). HBS-EP+ (GE Healthcare) was used as the running buffer, and the measurement temperature was set to 25° C. Chips produced by immobilizing the antigen peptide by the amine coupling method to a Series S Sencor Chip CM5 (GE Healthcare), or alternatively, chips produced by allowing preliminarily biotinylated antigen peptides to interact with and immobilize onto a Series S Sensor Chip SA (certified) (GE Healthcare) were used. Antibodies of interest were captured onto an antigen peptide-immobilized chip, and allowed to interact to each FcγR diluted with running buffer. To regenerate and repeatedly use the chip, the antibodies captured on the chip were washed off by reacting 10 mM glycine-HCl, pH 1.5.

Ho/Con_2aR | Binder
102 % of control | B1
120 % of control | B2
104 % of control | B3
106 % of control | B4
101 % of control | B5
113 % of control | B6
107 % of control | B7
122 % of control | B8
105 % of control | B9
105 % of control | B10
139 % of control | B11
133 % of control | B12
133 % of control | B13
131 % of control | B14
134 % of control | B15
120 % of control | B16
100 % of control | B17
110 % of control | B18
102 % of control | B19
105 % of control | B20
106 % of control | B21
106 % of control | B22
108 % of control | B23
114 % of control | B24
108 % of control | B25
118 % of control | B26
